The values that follow come from US20170158753A1 (INTEGRATED BIOTHERAPEUTICS, published 2017).

Experiment [1] addresses T1, EBOV soluble GP (sGP) (Ebola virus (EBOV), UniProt P60170 33-324).
T1 sequence: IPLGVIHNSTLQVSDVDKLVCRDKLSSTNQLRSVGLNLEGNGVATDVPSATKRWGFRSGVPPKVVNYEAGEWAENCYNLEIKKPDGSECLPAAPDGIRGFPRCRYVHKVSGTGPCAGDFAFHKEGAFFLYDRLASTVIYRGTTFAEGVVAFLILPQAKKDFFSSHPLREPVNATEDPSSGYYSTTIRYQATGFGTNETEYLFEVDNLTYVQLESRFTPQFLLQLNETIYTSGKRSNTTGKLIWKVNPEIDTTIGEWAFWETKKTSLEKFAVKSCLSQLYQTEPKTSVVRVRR
In words: ELISA on EBOV soluble GP (sGP), OD650 against nM mAb.

Experiment [2] addresses T2, glycoprotein from Marburg virus (MARV; Musoke isolate) (Marburg virus (MARV; Musoke isolate), UniProt P35253 19-648).
T2 sequence: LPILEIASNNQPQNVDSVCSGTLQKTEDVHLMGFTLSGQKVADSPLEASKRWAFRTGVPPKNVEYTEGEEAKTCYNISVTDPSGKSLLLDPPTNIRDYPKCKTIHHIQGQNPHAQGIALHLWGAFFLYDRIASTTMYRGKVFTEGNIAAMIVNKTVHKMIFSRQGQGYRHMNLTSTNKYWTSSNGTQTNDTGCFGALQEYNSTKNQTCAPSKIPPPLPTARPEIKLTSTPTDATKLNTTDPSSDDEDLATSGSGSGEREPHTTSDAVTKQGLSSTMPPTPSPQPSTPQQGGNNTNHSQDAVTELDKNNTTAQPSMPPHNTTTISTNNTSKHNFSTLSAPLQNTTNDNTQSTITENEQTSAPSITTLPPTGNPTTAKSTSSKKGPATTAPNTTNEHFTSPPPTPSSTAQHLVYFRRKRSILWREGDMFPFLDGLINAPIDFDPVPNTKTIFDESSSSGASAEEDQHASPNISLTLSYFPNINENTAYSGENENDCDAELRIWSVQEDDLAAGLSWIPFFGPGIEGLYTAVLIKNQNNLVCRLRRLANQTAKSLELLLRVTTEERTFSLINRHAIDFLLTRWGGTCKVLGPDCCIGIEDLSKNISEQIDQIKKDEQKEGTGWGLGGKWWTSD
The experiment in a line: summary of reactivity by any method (ELISA, Western blot, BIACORE).

The target of experiment [3] is T3, glycoprotein from Sudan ebolavirus (SUDV) (Sudan ebolavirus (SUDV), UniProt Q66814 33-650).
T3 sequence: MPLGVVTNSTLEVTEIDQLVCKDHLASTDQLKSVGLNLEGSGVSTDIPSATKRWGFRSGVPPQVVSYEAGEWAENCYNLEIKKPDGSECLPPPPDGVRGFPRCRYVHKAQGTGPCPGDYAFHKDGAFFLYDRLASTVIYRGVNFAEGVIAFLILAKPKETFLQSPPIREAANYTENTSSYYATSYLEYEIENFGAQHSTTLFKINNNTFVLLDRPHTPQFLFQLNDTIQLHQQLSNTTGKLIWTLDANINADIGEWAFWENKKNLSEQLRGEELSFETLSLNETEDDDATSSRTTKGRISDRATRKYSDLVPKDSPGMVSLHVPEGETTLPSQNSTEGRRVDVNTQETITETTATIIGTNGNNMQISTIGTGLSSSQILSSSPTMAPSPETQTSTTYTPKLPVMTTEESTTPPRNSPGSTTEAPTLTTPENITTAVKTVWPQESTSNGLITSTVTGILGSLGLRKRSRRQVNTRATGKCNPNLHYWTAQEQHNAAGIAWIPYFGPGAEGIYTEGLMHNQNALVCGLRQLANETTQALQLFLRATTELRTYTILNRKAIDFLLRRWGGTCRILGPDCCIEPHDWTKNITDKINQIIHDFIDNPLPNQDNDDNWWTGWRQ
The description is as above.

Experiment [4] has as its target T4, glycoprotein from Reston ebolavirus (RESTV) (Reston ebolavirus (RESTV), UniProt Q66799 34-651).
T4 sequence: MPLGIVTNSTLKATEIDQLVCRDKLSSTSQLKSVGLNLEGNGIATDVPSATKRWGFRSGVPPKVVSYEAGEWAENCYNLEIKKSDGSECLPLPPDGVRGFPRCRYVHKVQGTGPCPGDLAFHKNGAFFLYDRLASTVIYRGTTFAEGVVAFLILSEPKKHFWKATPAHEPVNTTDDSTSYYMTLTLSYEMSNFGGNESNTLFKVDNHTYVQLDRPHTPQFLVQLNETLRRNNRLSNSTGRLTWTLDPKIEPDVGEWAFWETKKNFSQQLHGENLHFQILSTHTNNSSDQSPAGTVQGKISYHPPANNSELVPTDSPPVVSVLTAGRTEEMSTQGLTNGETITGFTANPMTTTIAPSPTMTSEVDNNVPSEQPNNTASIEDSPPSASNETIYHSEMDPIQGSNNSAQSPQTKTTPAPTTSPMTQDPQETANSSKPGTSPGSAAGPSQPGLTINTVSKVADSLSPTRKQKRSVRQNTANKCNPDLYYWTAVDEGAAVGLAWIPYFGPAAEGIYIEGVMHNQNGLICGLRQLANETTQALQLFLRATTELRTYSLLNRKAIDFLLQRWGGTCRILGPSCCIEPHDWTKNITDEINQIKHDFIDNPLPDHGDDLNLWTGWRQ
Described as above.

Substitutions are numbered along the chain they refer to.

B1: m16G8 (antibody, V domains shown)
VH: EVQLQESGPGLVKPGASVKISCKASGYSFTGYYMNWVKQSPEKSLEWIGEINPSTGGTTYNQKFKAKATLTVDKSSSTAYMQLKSLTSEDSAVYYCVRYSHYYGSGSWYFDVWGTGTTVTVSS
VL: DIQMTQSPASLSASVGETVTITCRASENIYSNLAWYQQKQGKSPQLLVNAATNLADGVPSRFSGSGSGTQFSLKINSLQPEDFGSYYCQHFYVTPYMFGSGTKLEIKR
On to B1, for which the binding result in experiment [1] is on record as “no binding (tested: about 67 nM (last point; axis to 100 nM))”; in experiment [2] it was “no binding”; in experiment [3], “binds”.

B2: m2E4 (antibody, V domains shown)
VH: B1 VH with G10E
VL: B1 VL with M97T
For B2, the binding result in experiment [2] is “no binding”.

B3: m17C6 (antibody, V domains shown)
VH: EVQLQESGPGLVQPSQSLSITCTVSGFSLTSYGVHWVRQSPGKGLEWLGVIWSGGSTDYNAAFISRLSISKDNSKSQVFFKMNSLQADDTAIYYCARNWFDYDNYYSMDYWGQGTSVTVSS
VL: DIQMTQTTSSLSASLGDRVTISCRASQDISNYLNWYQQKPDGTVKLLIYYTSRLHSGVPSRFSGSGSGTDFSLTISNQEPEDIATYYCQQYSNLPWTFGGGTKLEIKR
Consider B3, for which the EC50 in experiment [1] is 0.4 nM. Further, the binding result in experiment [3] is recorded as “binds”.

B4: m2D8 (antibody, V domains shown)
VH: EVQLQESGGELVRPGTSVKISCKASGYTFTNFWLGWIKERPGHGLEWIGDIYPGGHYTNYNENFKGKATLTADTSSNTAYMQVSSLTSEDSAVYFCFTQYYDMDYWGQGTSVTVSS
VL: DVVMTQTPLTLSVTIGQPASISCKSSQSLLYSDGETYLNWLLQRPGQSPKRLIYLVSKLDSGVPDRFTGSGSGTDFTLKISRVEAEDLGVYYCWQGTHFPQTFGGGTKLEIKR
For B4, the binding result in experiment [2] and in experiment [3] was “binds” throughout.

B5: m8C4 (antibody, V domains shown)
VH: EVQLQESGPELKKPGETVKISCKASGYTFTTYGMSWVKQAPGKGLKWMGRINTYSGVPTYADEFKGRFAFSLENSASTAYLQINNLKNEDTATYFCARGDGGHWFANWGQGTLVTVSA
VL: DIQMTQSPSSLSASLGGKVTITCKASQDINKNIAWYQHKPGKGPRLLIWYKSALQPGIPSRFSGSGSGRDYSFSISNLEPEDIATYSCLQYDNLPPTFGGGTKLEIKR
As to B5, in experiment [1], the EC50 came to 10.3 nM. In addition, the binding result in experiment [2] and in experiment [4] was “no binding” in each case.

B6: m21B2 (antibody, V domains shown)
VH: EVQLQESGAELVRPGASVTLSCKTSGYTFTDYEMHWVKQTPVHGLEWIGAIDPETGGTAYNQKFKGKATLTADKSSSTAYMELSRLTSEDSAVYYCTGNYATDYWGQGTSVTVSS
VL: DIVMSQSPSSLAVSAGEKVTMSCKSSQSLFNSRSRKNYLAWYQLKPGQSPKLLIYWASTRESGVPDRFTGSGSGTDFTLTISSVQAEDLAVYYCKQSNYLWTFGGGTKLEIKR
With B6, the binding result in experiment [2] was “binds”.
